Literature values as cited in article PMC7355470.
Read-outs that look alike come from different tables or passages of the source. Each block holds one substance with its values, some of them ahead of it.

Columns and labels:
[1] = biological target: P-selectin (Homo sapiens) (UniProt P16109)
[2] = biological target: P-selectin (Homo sapiens) (UniProt P16109); remark: listed apart in the source
[3] = biological target: P-selectin (Homo sapiens) (UniProt P16109); remark: listed apart in the source
PSGL-1 (Homo sapiens) [4] = biological target: PSGL-1 (Homo sapiens) (UniProt Q14242)
[5] = biological target: PSGL-1 glycosulfopeptide N-terminal binding region peptide (Homo sapiens) (UniProt Q14242)
[6] = biological target: PSGL-1 glycosulfopeptide N-terminal binding region peptide (Homo sapiens) (UniProt Q14242); remark: listed apart in the source
[7] = biological target: PSGL-1 glycopeptide (non-sulfated) N-terminal binding region peptide (Homo sapiens) (UniProt Q14242)
[8] = biological target: PSGL-1 glycosulfopeptide N-terminal binding region peptide (Homo sapiens) (UniProt Q14242); remark: listed apart in the source
[9] = biological target: P-selectin (Homo sapiens) (UniProt P16109); remark: listed apart in the source
[10] = biological target: E-selectin (Homo sapiens) (UniProt P16581)
[11] = biological target: L-selectin (Homo sapiens) (UniProt P14151)
PSGL-1 (Homo sapiens) [12] = biological target: PSGL-1 (Homo sapiens) (UniProt Q14242); remark: listed apart in the source
ESL-1 (Mus musculus) = ESL-1 (Mus musculus) (UniProt Q61543); test: SPR
Chain of UniProt Q61543 (Q61543 28-1141): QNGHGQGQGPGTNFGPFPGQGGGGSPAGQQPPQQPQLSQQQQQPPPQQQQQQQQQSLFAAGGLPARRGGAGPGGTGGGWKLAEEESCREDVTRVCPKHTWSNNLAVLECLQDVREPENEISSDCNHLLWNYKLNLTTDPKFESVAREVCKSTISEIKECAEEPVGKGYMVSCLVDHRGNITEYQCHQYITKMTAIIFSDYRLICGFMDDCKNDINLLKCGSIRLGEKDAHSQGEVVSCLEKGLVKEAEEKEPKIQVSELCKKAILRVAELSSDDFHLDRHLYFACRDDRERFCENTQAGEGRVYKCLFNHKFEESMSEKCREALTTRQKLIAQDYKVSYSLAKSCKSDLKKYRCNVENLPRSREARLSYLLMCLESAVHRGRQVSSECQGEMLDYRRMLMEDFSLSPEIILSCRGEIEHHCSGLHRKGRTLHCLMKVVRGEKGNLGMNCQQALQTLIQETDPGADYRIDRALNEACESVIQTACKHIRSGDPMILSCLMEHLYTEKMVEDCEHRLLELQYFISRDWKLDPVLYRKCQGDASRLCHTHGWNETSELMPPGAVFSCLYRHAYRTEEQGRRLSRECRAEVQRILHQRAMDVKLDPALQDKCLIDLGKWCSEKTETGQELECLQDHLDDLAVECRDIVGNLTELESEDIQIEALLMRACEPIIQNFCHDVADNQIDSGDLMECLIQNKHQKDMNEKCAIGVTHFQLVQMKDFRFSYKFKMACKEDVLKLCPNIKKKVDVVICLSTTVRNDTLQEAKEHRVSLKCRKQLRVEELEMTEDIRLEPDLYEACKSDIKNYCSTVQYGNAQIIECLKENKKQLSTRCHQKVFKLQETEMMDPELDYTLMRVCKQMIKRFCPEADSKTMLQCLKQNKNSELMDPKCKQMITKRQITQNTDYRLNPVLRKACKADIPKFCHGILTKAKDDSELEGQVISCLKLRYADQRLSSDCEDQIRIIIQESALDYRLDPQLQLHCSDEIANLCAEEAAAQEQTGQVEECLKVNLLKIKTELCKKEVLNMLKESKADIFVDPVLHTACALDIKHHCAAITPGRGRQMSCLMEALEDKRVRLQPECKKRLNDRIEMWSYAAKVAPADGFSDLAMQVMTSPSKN

[13] = biological target: P-selectin (Homo sapiens) (UniProt P16109); remark: listed apart in the source
GlyCAM-1 = GlyCAM-1 (UniProt Q02596)
Chain of UniProt Q02596 (Q02596 20-151): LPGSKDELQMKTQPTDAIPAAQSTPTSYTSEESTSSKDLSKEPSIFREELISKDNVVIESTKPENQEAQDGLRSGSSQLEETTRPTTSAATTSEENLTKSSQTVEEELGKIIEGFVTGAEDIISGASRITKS

Chain of PSGL-1 (Q14242 42-320): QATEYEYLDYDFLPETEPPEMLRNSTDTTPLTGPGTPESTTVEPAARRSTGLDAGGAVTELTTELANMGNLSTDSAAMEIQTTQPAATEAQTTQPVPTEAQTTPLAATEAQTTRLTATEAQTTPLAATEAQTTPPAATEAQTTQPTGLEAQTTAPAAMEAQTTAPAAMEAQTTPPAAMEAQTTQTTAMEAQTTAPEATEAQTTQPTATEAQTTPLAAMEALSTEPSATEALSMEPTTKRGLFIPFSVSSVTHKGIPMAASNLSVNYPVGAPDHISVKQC
Chain of PSGL-1 glycopeptide (non-sulfated) (Q14242 42-320): as above

Substance: P-selectin (from UniProt P16109)
Kd [5]: 10 µM
Kd [6]: 6 µM
Kd [7]: 25 µM
Kd [8]: 0.65 µM

Substance: PSGL-1 (from UniProt Q14242)
Kd [9]: 0.32 µM
Kd [10]: 15 µM
Kd [11]: 5 µM

Substance: E-selectin (from UniProt P16581)
Kd (PSGL-1 (Homo sapiens) [12]): 15 µM
Kd (ESL-1 (Mus musculus)): 62 µM

Substance: E-selectin (from UniProt Q00690)
Kd (ESL-1 (Mus musculus)): 62 µM

Substance: PSGL-1 glycopeptide (non-sulfated) (from UniProt Q14242)
Kd [13]: 25 µM

Other lines, results leading:

Kd [1]: 0.65 µM
Kd [2]: 10 µM
Kd [3]: 6 µM
Substance: PSGL-1 glucosulfopeptide (from UniProt Q14242)

Kd (PSGL-1 (Homo sapiens) [4]): 5 µM
Substance: L-selectin (from UniProt P14151)

Kd (GlyCAM-1): 108 µM
Substance: L-selectin (from UniProt P18337)
